T1: DFNB31_3, Q9P202
T1 sequence (Q9P202 811-907, limits assumed, looked up): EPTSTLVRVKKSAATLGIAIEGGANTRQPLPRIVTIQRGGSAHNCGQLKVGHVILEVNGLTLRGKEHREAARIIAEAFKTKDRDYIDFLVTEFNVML

T2: MPDZ_10, O75970
T2 sequence (O75970 1624-1722, limits assumed, looked up): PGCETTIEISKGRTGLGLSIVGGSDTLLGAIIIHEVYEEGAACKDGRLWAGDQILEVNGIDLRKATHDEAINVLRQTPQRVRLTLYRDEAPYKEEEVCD

T3: HTRA3, P83110
T3 sequence (P83110 354-453, limits assumed, looked up): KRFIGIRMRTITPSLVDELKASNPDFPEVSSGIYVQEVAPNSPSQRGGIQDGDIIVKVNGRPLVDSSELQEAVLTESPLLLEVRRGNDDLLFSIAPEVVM

T4: LNX2_3, Q8N448
T4 sequence (Q8N448 463-564, limits assumed, looked up): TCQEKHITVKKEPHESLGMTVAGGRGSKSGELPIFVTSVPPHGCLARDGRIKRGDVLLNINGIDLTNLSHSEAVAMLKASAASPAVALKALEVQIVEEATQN

T5: LNX2_2, Q8N448
T5 sequence (Q8N448 334-432, limits assumed, looked up): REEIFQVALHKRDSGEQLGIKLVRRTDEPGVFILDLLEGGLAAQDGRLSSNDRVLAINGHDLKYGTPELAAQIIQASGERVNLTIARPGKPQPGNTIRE

T6: NHERF3_3, Q5T2W1
T6 sequence (Q5T2W1 238-333, limits assumed, looked up): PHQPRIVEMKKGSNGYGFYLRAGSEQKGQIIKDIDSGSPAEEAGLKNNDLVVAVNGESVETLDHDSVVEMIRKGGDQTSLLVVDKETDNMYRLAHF

T7: DFNB31_2, Q9P202
T7 sequence (Q9P202 274-371, limits assumed, looked up): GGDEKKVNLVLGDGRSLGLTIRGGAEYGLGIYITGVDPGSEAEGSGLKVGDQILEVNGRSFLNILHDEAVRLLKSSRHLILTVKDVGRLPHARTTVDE

T8: APBA2_2, Q99767
T8 sequence (Q99767 654-744, limits assumed, looked up): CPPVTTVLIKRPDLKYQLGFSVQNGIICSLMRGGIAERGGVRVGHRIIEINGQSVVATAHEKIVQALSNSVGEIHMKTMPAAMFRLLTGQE

T9: ARHGEF11, O15085
T9 sequence (O15085 42-136, limits assumed, looked up): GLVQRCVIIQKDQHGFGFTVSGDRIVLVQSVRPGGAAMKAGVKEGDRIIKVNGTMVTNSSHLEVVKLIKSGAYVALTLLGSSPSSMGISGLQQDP

B1: HPV49-L2, P36762 (peptide)
chain: RRRKRKRTYL
B2: PSCDBP, O60759 (peptide)
chain: RAVEEEESRF

Assays:
Assay in all cases: holdup assay
Set-up in all cases: key: below the threshold = too weak to quantify, mostly under pKd 3.1 to 4
Conditions in all cases: plain residues with an end cap or a label only (N-terminal biotin on a linker: ahx)
DFNB31_3, Q9P202 = molecular target: T1, DFNB31_3, Q9P202
HTRA2, O43464 = molecular target: HTRA2, O43464
HTRA2, O43464, sequence (O43464 355-458): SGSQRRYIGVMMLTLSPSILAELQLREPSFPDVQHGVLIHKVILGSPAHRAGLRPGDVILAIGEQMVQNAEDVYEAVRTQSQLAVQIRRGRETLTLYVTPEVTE

HTRA1, Q92743 = molecular target: HTRA1, Q92743
HTRA1, Q92743, sequence (Q92743 360-477): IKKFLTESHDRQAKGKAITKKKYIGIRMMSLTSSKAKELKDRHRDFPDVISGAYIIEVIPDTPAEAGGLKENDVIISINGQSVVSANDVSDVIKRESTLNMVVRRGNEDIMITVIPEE

MPDZ_10, O75970 = molecular target: T2, MPDZ_10, O75970
Inadl_1, Q8NI35 = molecular target: Inadl_1, Q8NI35
Inadl_1, Q8NI35, sequence (Q8NI35 113-229): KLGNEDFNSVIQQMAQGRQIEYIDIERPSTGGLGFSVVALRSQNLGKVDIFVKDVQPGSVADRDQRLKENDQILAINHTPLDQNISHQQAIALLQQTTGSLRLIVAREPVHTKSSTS

HTRA3, P83110 = molecular target: T3, HTRA3, P83110
DLG1_3, Q12959 = molecular target: DLG1_3, Q12959
DLG1_3, Q12959, sequence (Q12959 457-571): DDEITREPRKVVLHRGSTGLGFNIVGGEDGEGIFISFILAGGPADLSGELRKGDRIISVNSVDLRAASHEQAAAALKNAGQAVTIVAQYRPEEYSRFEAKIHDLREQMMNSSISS

Inadl_4, Q8NI35 = molecular target: Inadl_4, Q8NI35
Inadl_4, Q8NI35, sequence (Q8NI35 547-651): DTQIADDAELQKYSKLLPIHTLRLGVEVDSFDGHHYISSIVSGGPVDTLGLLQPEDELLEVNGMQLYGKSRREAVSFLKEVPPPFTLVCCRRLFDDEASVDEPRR

GRIP2_4, Q9C0E4 = molecular target: GRIP2_4, Q9C0E4
GRIP2_4, Q9C0E4, sequence (Q9C0E4 446-548): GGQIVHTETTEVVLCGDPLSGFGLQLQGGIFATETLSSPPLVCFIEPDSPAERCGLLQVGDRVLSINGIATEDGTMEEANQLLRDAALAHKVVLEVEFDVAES

GRID2IP_2, A4D2P6 = molecular target: GRID2IP_2, A4D2P6
GRID2IP_2, A4D2P6, sequence (A4D2P6 272-370): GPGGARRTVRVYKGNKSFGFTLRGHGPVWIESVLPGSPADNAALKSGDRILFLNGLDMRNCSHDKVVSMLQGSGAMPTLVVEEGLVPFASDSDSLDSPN

LNX2_3, Q8N448 = molecular target: T4, LNX2_3, Q8N448
LNX2_2, Q8N448 = molecular target: T5, LNX2_2, Q8N448
IL16_3, Q14005 = molecular target: IL16_3, Q14005
IL16_3, Q14005, sequence (Q14005 1107-1207): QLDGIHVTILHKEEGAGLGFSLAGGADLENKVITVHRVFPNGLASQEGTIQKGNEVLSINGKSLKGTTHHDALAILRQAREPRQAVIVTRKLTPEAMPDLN

SNX27, Q96L92 = molecular target: SNX27, Q96L92
MAGI3_2, Q5TCQ9 = molecular target: MAGI3_2, Q5TCQ9
MAGI3_2, Q5TCQ9, sequence (Q5TCQ9 398-503): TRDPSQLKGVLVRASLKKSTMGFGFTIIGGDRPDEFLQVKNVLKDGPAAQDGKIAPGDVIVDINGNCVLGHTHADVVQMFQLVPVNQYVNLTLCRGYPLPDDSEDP

NHERF3_3, Q5T2W1 = molecular target: T6, NHERF3_3, Q5T2W1
DFNB31_2, Q9P202 = molecular target: T7, DFNB31_2, Q9P202
TJP1_2, Q07157 = molecular target: TJP1_2, Q07157
TJP1_2, Q07157, sequence (Q07157 181-274): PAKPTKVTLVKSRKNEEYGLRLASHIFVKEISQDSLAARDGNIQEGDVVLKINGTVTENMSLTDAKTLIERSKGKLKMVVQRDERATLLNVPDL

PICK1, Q9NRD5 = molecular target: PICK1, Q9NRD5
PICK1, Q9NRD5, sequence (Q9NRD5 17-115): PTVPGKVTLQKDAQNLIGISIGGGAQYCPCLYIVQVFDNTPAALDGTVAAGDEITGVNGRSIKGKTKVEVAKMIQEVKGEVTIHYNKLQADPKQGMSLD

APBA2_2, Q99767 = molecular target: T8, APBA2_2, Q99767
Inadl_5, Q8NI35 = molecular target: Inadl_5, Q8NI35
Inadl_5, Q8NI35, sequence (Q8NI35 673-780): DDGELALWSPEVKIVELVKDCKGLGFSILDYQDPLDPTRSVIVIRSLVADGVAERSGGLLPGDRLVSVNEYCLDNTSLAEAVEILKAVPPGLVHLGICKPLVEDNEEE

GRIP2_5, Q9C0E4 = molecular target: GRIP2_5, Q9C0E4
GRIP2_5, Q9C0E4, sequence (Q9C0E4 544-642): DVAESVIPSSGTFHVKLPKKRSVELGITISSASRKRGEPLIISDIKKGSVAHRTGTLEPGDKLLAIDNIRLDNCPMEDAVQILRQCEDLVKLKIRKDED

GORASP2, Q9H8Y8 = molecular target: GORASP2, Q9H8Y8
MAGI1_1, Q96QZ7 = molecular target: MAGI1_1, Q96QZ7
MAGI1_1, Q96QZ7, sequence (Q96QZ7 1-106): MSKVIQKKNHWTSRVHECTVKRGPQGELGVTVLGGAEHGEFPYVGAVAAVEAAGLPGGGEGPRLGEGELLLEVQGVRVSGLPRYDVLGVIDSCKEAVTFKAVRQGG

TJP1_3, Q07157 = molecular target: TJP1_3, Q07157
TJP1_3, Q07157, sequence (Q07157 416-512): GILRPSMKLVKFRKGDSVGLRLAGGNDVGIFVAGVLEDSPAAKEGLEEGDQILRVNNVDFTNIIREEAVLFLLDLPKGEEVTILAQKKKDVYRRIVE

Inadl_9, Q8NI35 = molecular target: Inadl_9, Q8NI35
Inadl_9, Q8NI35, sequence (Q8NI35 1530-1615): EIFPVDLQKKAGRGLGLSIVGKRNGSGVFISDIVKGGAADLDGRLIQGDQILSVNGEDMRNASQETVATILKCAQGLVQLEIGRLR

ARHGEF11, O15085 = molecular target: T9, ARHGEF11, O15085
GOPC, Q9HD26 = molecular target: GOPC, Q9HD26
MAST1, Q9Y2H9 = molecular target: MAST1, Q9Y2H9
MAST1, Q9Y2H9, sequence (Q9Y2H9 962-1065): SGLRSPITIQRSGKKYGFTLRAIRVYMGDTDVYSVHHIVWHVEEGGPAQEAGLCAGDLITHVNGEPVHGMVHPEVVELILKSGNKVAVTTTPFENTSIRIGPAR

| Binder | pKd (DFNB31_3, Q9P202) | pKd (HTRA2, O43464) | pKd (HTRA1, Q92743) | pKd (MPDZ_10, O75970) | pKd (Inadl_1, Q8NI35) | pKd (HTRA3, P83110) | pKd (DLG1_3, Q12959) | pKd (Inadl_4, Q8NI35) | pKd (GRIP2_4, Q9C0E4) | pKd (GRID2IP_2, A4D2P6) | pKd (LNX2_3, Q8N448) | pKd (LNX2_2, Q8N448) | pKd (IL16_3, Q14005) | pKd (SNX27, Q96L92) | pKd (MAGI3_2, Q5TCQ9) | pKd (NHERF3_3, Q5T2W1) | pKd (DFNB31_2, Q9P202) | pKd (TJP1_2, Q07157) | pKd (PICK1, Q9NRD5) | pKd (APBA2_2, Q99767) | also measured |
| --- | --- | --- | --- | --- | --- | --- | --- | --- | --- | --- | --- | --- | --- | --- | --- | --- | --- | --- | --- | --- | --- |
| B1 | 4.25 | 3.49 | 3.99 | 3.94 | below the threshold | below the threshold | 3.65 | below the threshold | 4.37 | 5.11 | below the threshold | below the threshold | below the threshold | below the threshold | 5.4 | 4.18 | below the threshold | 3.49 | 3.47 | below the threshold | pKd (Inadl_5, Q8NI35): 4.05; pKd (GRIP2_5, Q9C0E4): below the threshold; pKd (GORASP2, Q9H8Y8): 4.81; pKd (MAGI1_1, Q96QZ7): below the threshold; pKd (TJP1_3, Q07157): below the threshold; pKd (Inadl_9, Q8NI35): below the threshold; pKd (ARHGEF11, O15085): 4.01; pKd (GOPC, Q9HD26): 4.3; pKd (MAST1, Q9Y2H9): 4.21 |
| B2 | below the threshold | below the threshold | below the threshold | below the threshold | below the threshold | below the threshold | below the threshold | below the threshold | below the threshold | below the threshold | below the threshold | below the threshold | below the threshold | 5.64 | below the threshold | below the threshold | below the threshold | below the threshold | below the threshold | below the threshold | pKd (Inadl_5, Q8NI35): below the threshold; pKd (GRIP2_5, Q9C0E4): below the threshold; pKd (GORASP2, Q9H8Y8): below the threshold; pKd (MAGI1_1, Q96QZ7): below the threshold; pKd (TJP1_3, Q07157): below the threshold; pKd (Inadl_9, Q8NI35): below the threshold; pKd (ARHGEF11, O15085): below the threshold; pKd (GOPC, Q9HD26): below the threshold; pKd (MAST1, Q9Y2H9): 4.02 |

Reference: paper PMC9482650, “Quantitative fragmentomics allow affinity mapping of interactomes” (Nature Communications, 2022)
